Laboratory results as given in patent US20120107330A1 (published 2012).
Numbering of substitutions follows the chain as printed. Read-outs that look alike come from different tables or passages of the source. Ends that are not written are not given here.

T1: human TNFR1 (recombinant, R&D Systems cat no. 636-R1/CF, biotinylated) (human, UniProt P19438 30-211, limits assumed, biotinylated with EZ-Link NHS-LC-LC-biotin)
T1 construct: it is not tied to the BIAcore reagent; also called p55; hTNFR1
T1 sequence (looked up): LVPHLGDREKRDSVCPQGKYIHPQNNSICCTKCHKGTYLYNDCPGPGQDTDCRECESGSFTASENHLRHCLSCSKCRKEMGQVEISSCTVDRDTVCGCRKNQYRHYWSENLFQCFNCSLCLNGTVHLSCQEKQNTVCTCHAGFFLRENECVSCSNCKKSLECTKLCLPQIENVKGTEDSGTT

T2: peptide E5 (overlapping domain-3 peptide of human TNFR1) (human, also: biotinylated, position not given here)
T2 construct: also called peptide 3
T2 peptide: SGSGNQYRHYWSENLFQCF

T3: peptide D2 (domain-1 peptide of human TNFR1) (human, cysteine pairing not given here; also: biotinylated, position not given here)
T3 construct: also called peptide 1
T3 peptide: SGSGNSICCTKCHKGTYLY

T4: peptide A3 (negative control fragment of human TNFR1) (human, cysteine pairing not given here; also: biotinylated, position not given here)
T4 construct: also called control peptide
T4 peptide: SGSGNDCPGPGQDTDCREC

T5: peptide D5 (domain-3 peptide of human TNFR1) (human, also: biotinylated, position not given here)
T5 construct: also called peptide 2
T5 peptide: SGSGCRKNQYRHYWSENLF

T6: human TNFR1 on MRC-5 cells (human, UniProt P19438 30-455)
T6 sequence (looked up): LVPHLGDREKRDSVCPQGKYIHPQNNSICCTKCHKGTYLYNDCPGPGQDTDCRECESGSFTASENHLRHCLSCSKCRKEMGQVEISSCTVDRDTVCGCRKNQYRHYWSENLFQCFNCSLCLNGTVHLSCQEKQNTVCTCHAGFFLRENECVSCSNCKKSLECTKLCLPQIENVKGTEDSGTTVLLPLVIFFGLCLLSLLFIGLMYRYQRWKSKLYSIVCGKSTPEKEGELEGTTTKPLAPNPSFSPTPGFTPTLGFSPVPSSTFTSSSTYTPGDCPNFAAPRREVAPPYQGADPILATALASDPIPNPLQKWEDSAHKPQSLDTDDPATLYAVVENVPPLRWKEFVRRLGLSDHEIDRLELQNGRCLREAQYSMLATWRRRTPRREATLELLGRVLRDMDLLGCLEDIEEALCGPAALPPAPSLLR

T7: mouse TNFR1 on L929 cells (mouse, UniProt P25118 30-454)
T7 sequence (looked up): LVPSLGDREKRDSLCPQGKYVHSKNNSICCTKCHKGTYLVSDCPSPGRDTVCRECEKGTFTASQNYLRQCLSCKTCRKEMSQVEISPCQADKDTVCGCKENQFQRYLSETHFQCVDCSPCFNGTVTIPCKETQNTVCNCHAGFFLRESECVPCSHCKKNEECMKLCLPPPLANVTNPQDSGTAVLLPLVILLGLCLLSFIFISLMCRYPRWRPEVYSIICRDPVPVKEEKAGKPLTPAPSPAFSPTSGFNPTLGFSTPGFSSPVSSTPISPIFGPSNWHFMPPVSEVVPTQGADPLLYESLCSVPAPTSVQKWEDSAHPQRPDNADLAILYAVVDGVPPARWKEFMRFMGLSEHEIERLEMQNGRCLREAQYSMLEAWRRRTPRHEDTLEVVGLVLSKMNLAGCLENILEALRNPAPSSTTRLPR

B1: DOM1h-509 (other)
VH: EVQLLESGGGLVQPGGSLRLSCAASGFTFSQYRMHWVRQAPGKSLEWVSSIDTRGSSTYYADPVKGRFTISRDNSKNTLYLQMNSLRAEDTAVYYCAKAVTMFSPFFDYWGQGTLVTVSS
notes: VH domain antibody (dAb)
B2: DOM1h-543 (other)
VH: EVQLLESGGGLVQPGGSLRLSCAASGFTFMRYRMHWVRQAPGKGLEWVSSIDSNGSSTYYADSVKGRFTISRDNSKNTLYLQMNSLRAEDTAVYYCAKDRTERSPVFDYWGQGTLVTVSS
notes: VH dAb
B3: DOM1h-549 (other)
VH: EVQLLESGGGLVQPGGSLRLSCAASGFTFVDYEMHWVRQAPGKGLEWVSSISESGTTTYYADSVKGRFTISRDNSKNTLYLQMNSLRAEDTAVYYCAKRRFSASTFDYWGQGTLVTVSS
notes: VH dAb
B4: DOM1m-21-23 (other)
VH: EVQLLESGGGLVQPGGSLRLSCAASGFTFNRYSMGWLRQAPGKGLEWVSRIDSYGRGTYYEDPVKGRFSISRDNSKNTLYLQMNSLRAEDTAVYYCAKISQFGSNAFDYWGQGTQVTVSS
notes: VH dAb; also called DOM1m-12-23 [sic]
B5: DMS0132 (bispecific antibody)
chain: EVQLLESGGGLVQPGGSLRLSCAASGFTFVKYSMGWVRQAPGKGLEWVSQISDTADRTYYAHSVKGRFTISRDNSKNTLYLQMNSLRAEDTAVYYCAIYTGRWVPFEYWGQGTLVTVSSASTDIQMTQSPSSLSASVGDRVTITCRASRPIGTTLSWYQQKPGKAPKLLILWNSRLQSGVPSRFSGSGSGTDFTLTISSLQPEDFATYYCAQAGTHPTTFGQGTKVEIKR
notes: anti-TNFR1 dAb / AlbudAb in-line fusion
B6: DMS0135 (bispecific antibody)
chain: B5 chain with V30F, A61S
notes: as for B5
B7: DMS0133 (bispecific antibody)
chain: B5 chain with V30F, V104A
notes: as for B5
B8: DMS0134 (bispecific antibody)
chain: B5 chain with V30F
notes: as for B5
B9: DOM1h-131-511 (other)
VH: EVQLLESGGGLVQPGGSLRLSCAASGFTFAHETMVWVRQAPGKGLEWVSHIPPVGQDPFYADSVKGRFTISRDNSKNTLYLQMNSLRAEDTAVYYCALLPKRGPWFDYWGQGTLVTVSS
notes: also called control dAb

Experiments:
[1] = biological target: human TNFR1 (recombinant, R&D Systems cat no. 636-R1/CF, biotinylated) (human) (UniProt P19438); test: BIAcore, human TNFR1 on SA chip, second injection after DOM1h-574-16 as competitor
[2] = biological target: T1, human TNFR1 (recombinant, R&D Systems …); test: BIAcore, biotinylated human TNFR1 on SA chip, purified dAb injected (concentration not given)
[3] = biological target: T1, human TNFR1 (recombinant, R&D Systems …); test: BIAcore, human TNFR1 on SA chip
[4] = biological target: T2, peptide E5 (overlapping domain-3 …); test: BIAcore, biotinylated peptide E5 on SA chip
[5] = biological target: T3, peptide D2 (domain-1 peptide of human …); test: BIAcore, biotinylated peptide D2 on SA chip
[6] = biological target: T4, peptide A3 (negative control fragment …); test: BIAcore, biotinylated peptide A3 on SA chip
[7] = biological target: T5, peptide D5 (domain-3 peptide of human …); test: BIAcore, biotinylated peptide D5 on SA chip
[8] = biological target: T6, human TNFR1 on MRC-5 cells; test: cell-based or functional assay
[9] = biological target: T7, mouse TNFR1 on L929 cells; test: cell-based or functional assay
[10] = biological target: T1, human TNFR1 (recombinant, R&D Systems …); test: BIAcore, TNFR1 (species not given, taken as human)
[11] = biological target: T3, peptide D2 (domain-1 peptide of human …); test: BIAcore, biotinylated peptide D2 on SA chip
[12] = biological target: T5, peptide D5 (domain-3 peptide of human …); test: BIAcore, biotinylated peptide D5 on SA chip
[13] = biological target: T2, peptide E5 (overlapping domain-3 …); test: BIAcore, biotinylated peptide E5 on SA chip
[14] = biological target: T8, TNFR1-Fc fusion (R&D Systems Cat #372-RI) (human, UniProt P19438 30-211); test: receptor binding assay: TNFR1-Fc on beads incubated with the dAb, then with TNFα (blocked ligand); % inhibition of TNFα binding to TNFR1
T8 construct: range 30-211; also called TNFR1-containing beads; not shown: Human IgG1 (Pro100-Lys330)

[15] = biological target: T4, peptide A3 (negative control fragment …); test: BIAcore, biotinylated peptide A3 on SA chip
[16] = biological target: T8, TNFR1-Fc fusion (R&D Systems Cat …); test: receptor binding assay: TNFR1-Fc on anti-IgG beads, dAb titrated, blocked ligand TNFα detected with biotinylated anti-TNFα and fluorescent streptavidin (FMAT)
Method: The potency of the dAbs was determined against human TNFR1 in a receptor binding assay. This assay measures the binding of TNF-alpha to TNFR1 and the ability of soluble dAb to block this interaction. The TNFR1-Fc fusion (R&D Systems, Cat#372-RI.) is captured on a bead pre-coated with goat anti-human IgG (Spherotech, Cat#HUP-60-S). The receptor coated beads are incubated with TNF-alpha (10 ng/ml, Peprotech Cat#300-01A), dAb, biotin conjugated anti-TNF-alpha (Hycult Biotechnology Cat#HM2027.) and streptavidin Alexa Fluor 647 (Molecular Probes, (Invitrogen) Cat#32357) in a black sided clear bottomed 384 well plate. After 6 hours the plate is read on the ABI 8200 Cellular Detection system and bead associated fluorescence determined. If the dAb blocks TNF-alpha binding to TNFR1 the fluorescent intensity will be reduced.

Row | Molecule | MRC5 ND50 [8] | L929 ND50 [9] | Kd [10] | koff [10] | kon [10] | other results
1 | mAb Clone 4.12 (Invitrogen, cat. no. Zymed 33-0100) (antibody) | – | – | – | – | – | decrease of binding (RUs) in the presence of the competitor [1]: 20%
2 | B1 | – | – | – | – | – | binding result [2]: binds
3 | B2 | – | – | – | – | – | binding result [3]: binds
4 | B3 | – | – | – | – | – | binding result [2]: binds
5 | B4 | – | – | – | – | – | binding result [4]: no binding (tested: 2.5 µM); binding result [5]: no binding (tested: 2.5 µM); binding result [6]: no binding (tested: 2.5 µM); binding result [7]: no binding (tested: 2.5 µM)
6 | B5 | 1.04 nM | 6.8 nM | 0.25 nM | 4.6e-05 s⁻¹ | 190000 M⁻¹ s⁻¹ | –
7 | B6 | 1.17 nM | 5.9 nM | 0.32 nM | 5.7e-05 s⁻¹ | 180000 M⁻¹ s⁻¹ | –
8 | B7 | 0.99 nM | 4.2 nM | 0.2 nM | 3.6e-05 s⁻¹ | ~180000 M⁻¹ s⁻¹ | –
9 | B8 | 0.96 nM | 5.8 nM | 0.26 nM | 4.9e-05 s⁻¹ | 190000 M⁻¹ s⁻¹ | –
10 | B9 | – | – | – | – | – | binding result [11]: no binding (tested: 2.5 µM); binding result [12]: no binding (tested: 2.5 µM); binding result [13]: no binding (tested: 2.5 µM); IC50 (read off the curve) [14]: ~0.1 nM; binding result [15]: no binding (tested: 2.5 µM); IC50 (read off the curve) [16]: ~0.1 nM
